Experimental data published in the DeepSol protein solubility set.

Assay: soluble on expression in E. coli; label from the status in PepcDB or PDB records
With “GSHMEVNLRMSWWGGNGRHQVTLKALEEFHKQHPNINVKAEYTGWDGHLSRLTTQIAGGTEPDVMQTNWNWLPIFSKDGTGFYNLFSVKEQLDLAQFDPKELQQTTVNGKLNGIPISVTARIFYFNDATWAKAGLEYPKTWDELLAAGKVFKEKLGDQYYPVVLEHQDTLALIRSYMTQKYNIPTIDEANKKFAYSPEQWVEFFTMYKTMVDNHVMPSTKYYASFGKSNMYEMKPWINGEWAGTYMWNSTITKYSDNLTKPAKLVLGPYPMLPGAKDAGLFFKPAQMLSIGKSTKHPQESAMLINFLLNSKEGVEALGLERGVPLSATAVTQLRASGVIKDEDPSVAGLNMALELPHKMTTSPYFDDPQIVSLFGDAIQYIDYGQKTVQETAEYFNKQGDRILKRAMR” the “soluble on expression in E. coli” value was “soluble”.
With “GSHMGGGGGIVLFVDFDYFYAQVEEVLNPSLKGKPVVVCVFSGRFEDSGAVATANYEARKFGVKAGIPIVEAKKILPNAVYLPMRKEVYQQVSSRIMNLLREYSEKIEIASIDEAYLDISDKVRDYREAYNLGLEIKNKILEKEKITVTVGISKNKVFAKIAADMAKPNGIKVIDDEEVKRLIRELDIADVPGIGNITAEKLKKLGINKLVDTLSIEFDKLKGMIGEAKAKYLISLARDEYNEPIRTRVRKSIGRIVTMKRNSRNLEEIKPYLFRAIEESYYKLDKRIPKAIHVVAVTEDLDIVSRGRTFPHGISKETAYSESVKLLQKILEEDERKIRRIGVRFSKFIEAIGLDKFFDT” the “soluble on expression in E. coli” value was “soluble”.
For “GSHMGGIEVLGVKTGVDSFTEVECFLNPQMGNPDEHQKGLSKSLAAEKQFTDDSPDKEQLPCYSVARIPLPNINEDLTCGNILMWEAVTVKTEVIGVTAMLNLHSGTQKTHENGAGKPIQGSNFHFFAVGGEPLELQGVLANYRTKYPAQTVTPKNATVDSQQMNTDHKAVLDKDNAYPVECWVPDPSKNENTRYFGTYTGGENVPPVLHITNTATTVLLDEQGVGPLCKADSLYVSAVDICGLFTNTSGTQQWKGLPRYFKITLRKRSVKN”, the “soluble on expression in E. coli” value was “soluble”.
In the case of “GSHMQGQSPIKDQEMKELIRRSQEGDQEARDEIIEKNMRLVWSVVQRFLNRGYEADDLFQIGCIGLLKSVDKFDLSYDVKFSTYAVPMIIGEIQRFLRDDGTVKVSRSLKEMGNKIRKAKDELSKTRGRAPTVTEIADHLGISPEDVVLAQEAVRLPTSIHETVYENDGDPITLLDQIADADEASWFDKIALKKAIEELDERERLIVYLRYYKDQTQSEVASRLGISQVQMSRLEKKILQHIK”, the “soluble on expression in E. coli” value is reported as “soluble”.
For “GSHMQSYQISSRLMAQEGQRTSVQTSSLIQSLFDFRLAALRIHQDSTAKNASLINALVSRDSSRLDEFFSSVDELELSNAPDLRFISSHDNILWDDGNASFYGIAQQELNKLIRRVAISGNWHLVQTPSEGKSVHILMRRSSLIEAGTGQVVGYLYVGIVLNDNFALLENIRSGSNSENLVLAVDTTPLVSTLKGNEPYSLDYVVHSAKDAMRDSFIVGQTFLEVESVPTYLCVYSIQTNQNVLTLRDNESVPTYLCVYSIQTNQNVRHQ”, the “soluble on expression in E. coli” value was “soluble”.
With “GSHMVKDTLFSTPIAKLGDFIFDENVAEVFPDMIQRSVPGYSNIITAIGMLAERFVTADSNVYDLGCSRGAATLSARRNINQPNVKIIGIDNSQPMVERCRQHIAAYHSEIPVEILCNDIRHVEIKNASMVILNFTLQFLPPEDRIALLTKIYEGLNPNGVLVLSEKFRFEDTKINHLLIDLHHQFKRANGYSELEVSQKRTALENVMRTDSIETHKVRLKNVGFSQVELWFQCFNFGSMIAVK” the “soluble on expression in E. coli” value was “soluble”.
With “GSHSLRYFYTAVSRPGLGEPWFIIVGYVDDMQVLRFSSKEETPRMAPWLEQEEADDWEQQTHIVTIQGQLSERNLMTLVHFYNKSMDDSHTLQWLQDCDVEPDRHLCLWYNQLAYDSEDLPTLSENPSSCTVGNSTVPQISQHLEGHCSDVLQKYLEKGKERLLRSDPPKAHVTRHPRPEGDVTLRCWALGFYPADITLTWQKDGEELTQDVEFVETRPAGDGTFQKWAAVVVPLGKVQSYTCHVDHEGLPEPLTLRWEP” the “soluble on expression in E. coli” value was “soluble”.
With “GSKVEDPKDFPSELLSFLSHAVFSNRTLACFAIYTTKEKAALLYKKIMEKYSVTFISRHNSYNHNILFFLTPHRHRVSAINNYAQKLCTFSFLICKGVNKEYLMYSALTRDPFSVIEESLPGGLKEHDFNPESS” the “soluble on expression in E. coli” value was “soluble”.
With “GSMLHGLKQRLEALHHPGELEGSPQNLHQLLGVSIEQSVPQAQTMLVERHLASLTGDEARLLAALSDGSAFALLTLYSGSRFSRGEVLYRYSNAGRAAGIQCNDFIALYLNHLFAQGLVIASDFTESLRTDYELCEGDSDFRKAQAELQIHLPKLSIRRETLRISPLGRQLWTLMTTPADIEEGH” the “soluble on expression in E. coli” value was “soluble”.
For “GSMPRVVPDQRSKFENEEFFRKLSRECEIKYTGFRDRPHEERQTRFQNACRDGRSEIAFVATGTNLSLQFFPASWQGEQRQTPSREYVDLEREAGKVYLKAPMILNGVCVIWKGWIDLHRLDGMGCLEFDEERAQQEDALAQQ”, the “soluble on expression in E. coli” value was “soluble”.
For “GSNAFGRFIDKIYLNSVGWRGIRQRKTHLQMLIKQAVAHLHAKGLAVRVVDIAAGHGRYVLDALANEPAISEILLRDYSEVNVAQGQEMIAQRGMSGRVRFEQGDAFNPEELSALTPRPTLAIVSGLYELFPENEQVKNSLAGLANAIDPGGILIYTGQPWHPQLELIAGVLTSHKDGKPWVMRVRSQGEMDSLVHDAGFDKCTQRIDVWGIFTVSMAVRRDN”, the “soluble on expression in E. coli” value was “not soluble”.
With “GSNRSLIVTTILEEPYVLFKKSDKPLYGNDRFEGYCIDLLRELSTILGFTYEIRLVEDGKYGAQDDVNGQWNGMVRELIDHKADLAVAPLAITCVREKVIDFSKPFMTLGISILYRKGTPIDSADDLAKQTKIEYGAVEDGATMTFFKKSKISTYDKMWAFMSSRRQSVLVKSNEEGIQRVLTSDYAFLMESTTIEFVTQRNCNLTQIGGLIDSKGYGVGTPMGSPYRDKITIAICQLQEEGKLHMMKEKWWRGNGCPS” the “soluble on expression in E. coli” value was “soluble”.
In the case of “GSPEFEFKQKYDYFRKKLKKPADIPNRFEMKLHRNNIFEESYRRIMSVKRPDVLKARLWIEFESEKGLDYGGVAREWFFLLSKEMFNPYYGLFEYSATDNYTLQINPNSGLCNEDHLSYFTFIGRVAGLAVFHGKLLDGFFIRPFYKMMLGKQITLNDMESVDSEYYNSLKWILENDPTELDLMFCIDEENFGQTYQVDLKPNGSEIMVTNENKREYIDLVIQWRFVNRVQKQMNAFLEGFTELLPIDLIKIFDENELELLMCGLGDVDVNDWRQHSIYKNGYCPNHPVIQWFWKAVLLMDAEKRIRLLQFVTGTSRVPMNGFAELYGSNGPQLFTIEQWGSPEKLPRAHTAFNRLDLPPYETFEDLREKLLMAVENAQGFEGVD”, the “soluble on expression in E. coli” value is reported as “soluble”.
For “GSPGIPMVAAHAAHSQSSAEWIACLDKRPLERSSEDVDIIFTRLKGVKAFEKFHPNLLRQICLCGYYENLEKGITLFRQGDIGTNWYAVLAGSLDVKVSETSSHQDAVTICTLGIGTAFGESILDNTPRHATIVTRESSELLRIEQEDFKALWEKYRQYMAGLLAPPYGVMETGSNNDRIPDKENVPSEKILRAGKILRIAILSRAPHMIRDRKYHLKTYRQCCVGTELVDWMIQQTSCVHSRTQAVGMWQVLLEDGVLNHVDQERHFQDKYLFYRFLDDEREDAPLPTEEEKKECDEELQDTMLLLSQMGPDAHMRMILRKPPGQRTVDDLEIIYDELLHIKALSHLSTTVKRELAGVLIFESHAKGGTVLFNQGEEGTSWYIILKGSVNVVIYGKGVVCTLHEGDDFGKLALVNDAPRAASIVLREDNCHFLRVDKEDFNRILRDVEANTVRLKEHDQDVLVLEKVPAGNRAANQGNSQPQQKYTVMSGTPEKILEHFLETIRLEPSLNEATDSVLNDFVMMHCVFMPNTQLCPALVAHYHAQPSQGTEQERMDYALNNKRRVIRLVLQWAAMYGDLLQEDDVAMAFLEEFYVSVSDDARMMAAFKEQLPELEKIVKQISEDAKAPQKKHKVLLQQFNTGDERAQKRQPIRGSDEVLFKVYCIDHTYTTIRVPVAASVKEVISAVADKLGSGEGLIIVKMNSGGEKVVLKSNDVSVFTTLTINGRLFACPREQFDSLTPLPEQEGPTTGTVGTFELMSSKDLAYQMTTYDWELFNCVHELELIYHTFGRHNFKKTTANLDLFLRRFNEIQFWVVTEVCLCSQLSKRVQLLKKFIKIAAHCKEYKNLNSFFAIVMGLSNVAVSRLALTWEKLPSKFKKFYAEFESLMDPSRNHRAYRLTAAKLEPPLIPFMPLLIKDMTFTHEGNKTFIDNLVNFEKMRMIANTARTVRYYRSQPFNPDAAQANKNHQDVRSYVRQLNVIDNQRTLSQMSHRLEPRRP”, the “soluble on expression in E. coli” value was “soluble”.
With “GSPGISGGGGGIPSGRGELLVSLCYQSTTNTLTVVVLKARHLPKSDVSGLSDPYVKVNLYHAKKRISKKKTHVKKCTPNAVFNELFVFDIPCESLEEISVEFLVLDSERGSRNEVIGRLVLGATAEGSGGGHWKEICDFPRRQIAKWHMLCDG” the “soluble on expression in E. coli” value was “soluble”.
For “GSSAVNQENERLMEEYERLASELLEWIRRTIPWLENRTPEKTMQAMQKKLEDFRDYRRKHKPPKVQEKCQLEINFNTLQTKLRISNRPAFMPSEGKMVSDIAGAWQRLEQAEKGYEEWLLNEIRRLERLEHLAEKFRQKASTHETWAYGKEQILLQKDYESASLTEVRALLRKHEAFESDLAAHQDRVEQIAAIAQELNELDYHDAVNVNDRCQKICDQWDRLGTLTQKRREALERMEKLLETIDQLHLEFAKRAAPFNNWMEGAMEDLQDMFIVHSIEEIQSLITAHEQFKATLPEADGERQSIMAIQNEVEKVIQSYNIRISSSNPYSTVTMDELRTKWDKVKQLVPIRDQSLQEELARQHANERLRRQFAAQANAIGPWIQNKMEEIARSSIQITGALEDQMNQLKQYEHNIINYKNNIDKLEGDHQLIQEALVFDNKHTNYTMEHIRVGWELLLTTIARTINEVETQILTRD”, the “soluble on expression in E. coli” value was “soluble”.
For “GSSGSSGDKKAYFYHSSFQILNVEYTEALNSPATHEYRTLSERIEAMITDEFRGSSLKSEFIRTHVVKLRKEGTGVVADVVMKFRSSKRNNRKVMKTRIQSVLRRLSSSGNLEIAPSNEITSLTDQDT”, the “soluble on expression in E. coli” value was “soluble”.
For “GSTAAEKPKLHYFNARGRMESTRWLLAAAGVEFEEKFIKSAEDLDKLRNDGYLMFQQVPMVEIDGMKLVQTRAILNYIASKYNLYGKDIKERALIDMYIEGIADLGEMILLLPVCPPEEKDAKLALIKEKIKNRYFPAFEKVLKSHGQDYLVGNKLSRADIHLVELLYYVEELDSSLISSFPLLKALKTRISNLPTVKKFLQPGSPRKPPMDEKSLEEHRKIFRF”, the “soluble on expression in E. coli” value was “soluble”.
For “GSVLEPLKVVWAKCSGYPSYPALIIDPKMPRVPGHHNGVTIPAPPLDVLKIGEHMQTKSDEKLFLVLFFDNKRSWQWLPKSKMVPLGIDETIDKLKMMEGRNSSIRKAVRIAFDRAMNHLSRVHGE”, the “soluble on expression in E. coli” value was “soluble”.
With “GSWDWNLITGEVCWSDELYHIFGRSPQESGATYDEFLSYVHPDDRDRVDNALKKGLNGESVAGNYRIILGDGEERIVRTEAEVVFDEK” the “soluble on expression in E. coli” value was “not soluble”.
For “GTDGTKPECTLCGVKYSARLSIRDHIFSKQHISKVRETVGSQLDREKD”, the “soluble on expression in E. coli” value was “soluble”.
For “GTRKCELQGLWRNELGSNMTISALDVAGTFSGSYQTAVTATNKQILVSPLKGAQQPPGTKGQQPTFGFTVQWQFADSTTVFVGQCFVDRRGKEMLEMAWLLREEVPSRKDTWKATRVGTNVFTRVK”, the “soluble on expression in E. coli” value was “soluble”.
In the case of “GVWRQYASRALQELGAGKRAIHDVADLTRGSLRIAVTPTFTSYFIGPLMADFYARYPSITLQLQEMSQEKIEDMLCRDELDVGIAFAPVHSPELEAIPLLTESLALVVAQHHPLAVHEQVALSRLHDEKLVLLSAEFATREQIDHYCEKAGLHPQVVIEANSISAVLELIRRTSLSTLLPAAIATQHDGLKAISLAPPLLERTAVLLRRKNSWQTAAAKAFLHMALDKCAVVGGNESR”, the “soluble on expression in E. coli” value is reported as “soluble”.
In the case of “GWAAGDYPVVTTDHLKAMIDEKRDFLLIDARTPEEYAEAHIVGAVNVPEKTFDSASAQLPADKAKLIVLYCNGIKCGKSKRVAKKVEPLGYTAIAVYNEGMPVWEERGLPIVKGAGYGRK”, the “soluble on expression in E. coli” value is reported as “not soluble”.
